Assay results published in publication PMC9666628 (Nature Communications, 2022).
Residue numbers refer to the chain shown, from its start. Values joined by “and” are separate entries in the source; they are usually repeats but may differ in a detail not shown here. Equal entries are not always repeated.

T1: Cbx7.V1 chromodomain variant (protein used for BLI) (human, UniProt O95931 7-66, E8D (printed as the back-mutation D8E) | Q9D | V10I (printed as the …))
T1 construct: chromodomain of human Cbx7 with the six substitutions of the phage-selected variant V1; residues numbered on full-length Cbx7; for BLI they were probably still on the protein; source: E. coli BL21(DE3), purified (Ni-NTA)
T1 sequence: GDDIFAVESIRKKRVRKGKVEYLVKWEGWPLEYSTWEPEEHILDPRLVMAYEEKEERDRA

T2: Cbx7.V1 back-mutant D8E (human, UniProt O95931 7-66, Q9D | V10I (printed as the back-mutation I10V) | K33E | P37L (printed as the …))
T2 construct: chromodomain of human Cbx7, variant V1 with residue 8 put back to the wild type; residues numbered on full-length Cbx7; Tags probably still on the protein in BLI (removal is told for FP and ITC only); source: E. coli BL21(DE3), purified (Ni-NTA)
T2 sequence: T1 sequence with D2E

T3: Cbx7.V1 back-mutant D9Q (human, UniProt O95931 7-66, E8D (printed as the back-mutation D8E) | V10I (printed as the back-mutation …))
T3 construct: chromodomain of human Cbx7, variant V1 with residue 9 put back to the wild type; residues numbered on full-length Cbx7; Tags probably still on the protein in BLI (removal is told for FP and ITC only); source: E. coli BL21(DE3), purified (Ni-NTA)
T3 sequence: T1 sequence with D3Q

T4: Cbx7.V1 back-mutant I10V (human, UniProt O95931 7-66, E8D (printed as the back-mutation D8E) | Q9D | K33E | P37L (printed as the …))
T4 construct: chromodomain of human Cbx7, variant V1 with residue 10 put back to the wild type; residues numbered on full-length Cbx7; Tags probably still on the protein in BLI (removal is told for FP and ITC only); source: E. coli BL21(DE3), purified (Ni-NTA)
T4 sequence: T1 sequence with I4V

T5: Cbx7.V1 back-mutant L37P (human, UniProt O95931 7-66, E8D (printed as the back-mutation D8E) | Q9D | V10I (printed as the …))
T5 construct: chromodomain of human Cbx7, variant V1 with residue 37 put back to the wild type; residues numbered on full-length Cbx7; Tags probably still on the protein in BLI (removal is told for FP and ITC only); source: E. coli BL21(DE3), purified (Ni-NTA)
T5 sequence: T1 sequence with L31P

T6: Cbx7.V1 back-mutant E38K (human, UniProt O95931 7-66, E8D (printed as the back-mutation D8E) | Q9D | V10I (printed as the …))
T6 construct: chromodomain of human Cbx7, variant V1 with residue 38 put back to the wild type; residues numbered on full-length Cbx7; Tags probably still on the protein in BLI (removal is told for FP and ITC only); source: E. coli BL21(DE3), purified (Ni-NTA)
T6 sequence: T1 sequence with E32K

T7: Cbx7.V1 (tags removed, used for FP and ITC) (human, UniProt O95931 7-66, E8D (printed as the back-mutation D8E) | Q9D | V10I (printed as the …))
T7 construct: chromodomain of human Cbx7 (Cbx7-chromo), UniProt O95931; source: E. coli BL21(DE3), purified (Ni-NTA; tags removed with TEV protease)
T7 sequence: T1 sequence

T8: wild-type Cbx7 chromodomain (tags removed) (human, UniProt O95931 7-66)
T8 construct: chromodomain of human Cbx7 (Cbx7-chromo), UniProt O95931; also called Cbx7.wt; source: E. coli BL21(DE3), purified (Ni-NTA; tags removed with TEV protease)
T8 sequence: T1 sequence with D2E, D3Q, I4V, E27K, L31P, E32K

T9: Cbx7 Q9D chromodomain (tags removed) (human, UniProt O95931 7-66, Q9D)
T9 construct: chromodomain of human Cbx7 (Cbx7-chromo), UniProt O95931; source: E. coli BL21(DE3), purified (Ni-NTA; tags removed with TEV protease)
T9 sequence: T1 sequence with D2E, I4V, E27K, L31P, E32K

T10: Cbx7 K33E chromodomain (tags removed) (human, UniProt O95931 7-66, K33E)
T10 construct: chromodomain of human Cbx7 (Cbx7-chromo), UniProt O95931; source: E. coli BL21(DE3), purified (Ni-NTA; tags removed with TEV protease)
T10 sequence: T1 sequence with D2E, D3Q, I4V, L31P, E32K

T11: Cbx7.VD chromodomain, Q9D/K33E (tags removed) (human, UniProt O95931 7-66, Q9D | K33E)
T11 construct: chromodomain of human Cbx7 (Cbx7-chromo), UniProt O95931; source: E. coli BL21(DE3), purified (Ni-NTA; tags removed with TEV protease)
T11 sequence: T1 sequence with D2E, I4V, L31P, E32K

T12: wild-type Cbx2 chromodomain (tags removed) (human, UniProt Q14781 9-62)
T12 construct: chromodomain of human Cbx2; also called Cbx2.wt; source: E. coli BL21(DE3), purified (Ni-NTA; tags removed with TEV protease)
T12 sequence: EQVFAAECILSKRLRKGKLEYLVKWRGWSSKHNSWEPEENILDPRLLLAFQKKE

T13: wild-type Cbx8 chromodomain (tags removed) (human, UniProt Q9HC52 8-61)
T13 construct: chromodomain of human Cbx8; also called Cbx8.wt; source: E. coli BL21(DE3), purified (Ni-NTA; tags removed with TEV protease)
T13 sequence: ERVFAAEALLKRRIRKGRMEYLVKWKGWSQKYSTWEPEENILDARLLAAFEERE

B1: Cbx6.VD chromodomain, Asp9/Glu33 (tags removed) (domain or fragment)
chain: GEDVFAAESIIKRRIRKGRIEYLVKWEGWAIKYSTWEPEENILDSRLIAAFEQKERERELYGP
B2: H3K27me3 peptide, biotinylated (peptide)
chain: KQLATKAARKSAPATGGVK
modifications: trimethyl-lysine at K27; biotin followed by an aminohexanoic acid linker at the N-terminus
B3: H3K9me3 peptide, N-terminal FITC (peptide)
chain: ARTKQTARKSTGGKAPR
modifications: trimethyl-lysine at K9; fluorescein isothiocyanate (FITC) at the N-terminus

What was measured:
Conditions in all cases: both partners purified
[1] = target: B3; experiment: fluorescence polarisation; 0.5 nM FITC-labelled peptide; chromodomains 200-0.2 µM (wild type) or 50 µM-50 nM (Cbx7.V1 and all Cbx.VDs); 30 min at 25 °C; 25 mM HEPES pH 7.5, 150 mM NaCl, 1 mM DTT, 0.01% TritonX-100; one-site total binding model
[2] = target: T1, Cbx7.V1 chromodomain variant (protein …); experiment: BLI; biotinylated peptide on streptavidin biosensor tips, chromodomain in solution at 5 or 1 µM; 25 °C; 25 mM HEPES pH 7.0, 150 mM NaCl, 1 mg/ml BSA, 0.01% Tween-20; steady-state fit, Langmuir model; values of single replicates
Cbx7.V1 back-mutant D8E = target: T2, Cbx7.V1 back-mutant D8E; experiment: as above
Cbx7.V1 back-mutant D9Q = target: T3, Cbx7.V1 back-mutant D9Q; experiment: as above
Cbx7.V1 back-mutant I10V = target: T4, Cbx7.V1 back-mutant I10V; experiment: as above
Cbx7.V1 back-mutant L37P = target: T5, Cbx7.V1 back-mutant L37P; experiment: as above
Cbx7.V1 back-mutant E38K = target: T6, Cbx7.V1 back-mutant E38K; experiment: as above
[3] = target: T7, Cbx7.V1 (tags removed, used for FP and …); experiment: fluorescence polarisation; 0.5 nM FITC-labelled peptide; chromodomains 200-0.2 µM (wild type) or 50 µM-50 nM (Cbx7.V1 and all Cbx.VDs); 30 min at 25 °C; 25 mM HEPES pH 7.5, 150 mM NaCl, 1 mM DTT, 0.01% TritonX-100; one-site total binding model
[4] = target: T8, wild-type Cbx7 chromodomain (tags …); experiment: as above
[5] = target: T9, Cbx7 Q9D chromodomain (tags removed); experiment: as above
[6] = target: T10, Cbx7 K33E chromodomain (tags removed); experiment: as above
[7] = target: T11, Cbx7.VD chromodomain, Q9D/K33E (tags …); experiment: as above
[8] = target: T14, wild-type Cbx1 chromodomain (tags removed) (human, UniProt P83916 20-73); experiment: as above
T14 construct: chromodomain of human Cbx1; also called Cbx1.wt; source: E. coli BL21(DE3), purified (Ni-NTA; tags removed with TEV protease)
T14 sequence (P83916 20-73, looked up): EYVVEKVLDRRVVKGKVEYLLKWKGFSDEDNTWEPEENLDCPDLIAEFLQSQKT

[9] = target: T15, wild-type Cbx3 chromodomain (tags removed) (human, UniProt Q13185 29-86); experiment: as above
T15 construct: chromodomain of human Cbx3; also called Cbx3.wt; source: E. coli BL21(DE3), purified (Ni-NTA; tags removed with TEV protease)
T15 sequence (Q13185 29-86, looked up): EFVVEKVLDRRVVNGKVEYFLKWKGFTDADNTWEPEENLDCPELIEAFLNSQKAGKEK

[10] = target: T16, wild-type Cbx5 chromodomain (tags removed) (human, UniProt P45973 18-75); experiment: as above
T16 construct: chromodomain of human Cbx5; also called Cbx5.wt; source: E. coli BL21(DE3), purified (Ni-NTA; tags removed with TEV protease)
T16 sequence (P45973 18-75, looked up): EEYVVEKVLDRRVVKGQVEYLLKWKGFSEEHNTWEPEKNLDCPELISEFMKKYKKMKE

[11] = target: T12, wild-type Cbx2 chromodomain (tags …); experiment: as above
[12] = target: T13, wild-type Cbx8 chromodomain (tags …); experiment: as above

Question: For B1, which Kd [1] is on record?
Answer: > 50000 nM

Question: B2 was tested. Which Kd [2] did it give?
Answer: 2000 nM and 2200 nM

Question: And the Kd (Cbx7.V1 back-mutant D8E)?
Answer: 1900 nM and 2200 nM

Question: What about the Kd (Cbx7.V1 back-mutant D9Q) of the same binder?
Answer: 1600 nM and 2700 nM

Question: What about the Kd (Cbx7.V1 back-mutant I10V) of the same binder?
Answer: 2800 nM and 1600 nM

Question: What about the Kd (Cbx7.V1 back-mutant L37P) of the same binder?
Answer: 2800 nM and 2200 nM

Question: And the Kd (Cbx7.V1 back-mutant E38K)?
Answer: 1500 nM and 1700 nM

Question: B3 was tested. Which Kd [3] did it give?
Answer: 7000 nM

Question: And the Kd [4]?
Answer: 30000 nM

Question: What about the Kd [5] of the same binder?
Answer: 10000 nM

Question: What about the Kd [6] of the same binder?
Answer: 20000 nM

Question: And the Kd [7]?
Answer: 8000 nM

Question: And the Kd [8]?
Answer: 500 nM

Question: And the Kd [9]?
Answer: 2000 nM

Question: What about the Kd [10] of the same binder?
Answer: 5000 nM

Question: What about the Kd [11] of the same binder?
Answer: > 200000 nM

Question: What about the Kd [12] of the same binder?
Answer: > 200000 nM
